From patent publication JP2006342173A

Columns and labels:
[1] = target: ヒトCD40ヒトFC (human CD40 extracellular region fused to human IgG1 FC) (human) (UniProt P25942); assay: SPR, BIAcore 2000; CD40 human FC immobilised on CM5; control IgG added first, then soluble CD40L 10 ug/ml; difference before and after CD40L
[2] = target: ヒトCD40 (human CD40 expressed on cells) (human) (UniProt P25942); assay: cell-based or functional assay

CD40Lの結合量 (RU) [1] [RU] | 扁桃腺B細胞の増殖抑制 ([3H]チミジン; flag標識CD40L+エンハンサー抗体刺激) [2] [%] | Substance
100 | – | 可溶性CD40リガンド (soluble CD40 ligand, FLAG-tagged, ALEXIS CORPORATION) (from UniProt P29965 116-261)
– | 50 | 5D12抗体 (mouse anti-human CD40 antibody, ATCC No.HB-11339)
